Consider 72 molecules from US20250011363A1, “OPTIMIZED SHORTENED PEPTIDE THAT BINDS TO ACETYLCHOLINE RECEPTOR, AND USE THEREOF” (SKINMED CO., LTD., priority 2021, published 2025).

This test addresses acetylcholine receptor. In words: SPR, AchR on chip, peptide 10 uM. On the technique in general: SPR reads the build-up and loss of mass on a sensor chip optically.

B1: 5mer-44 (peptide)
peptide: RSRTR
The molecule B1 gave a Binding affinity (RU) of 59 RU.

B2: 5mer-42 (peptide)
peptide: RQRLR
Molecule B2 gave a Binding affinity (RU) of 83 RU.

B3: 5mer-329 (peptide)
peptide: RRFCR
As to B3, the Binding affinity (RU) was found to be 79 RU.

B4: 5mer-343 (peptide)
peptide: KSFSR
In turn, B4 displayed a Binding affinity (RU) of 60 RU.

B5: 5mer-35 (peptide)
peptide: RWQYK
Take B5: the Binding affinity (RU) was found to be 80 RU.

B6: 5mer-503 (peptide)
peptide: KRVSK
As for B6, the Binding affinity (RU) was 61 RU.

B7: 5mer-43 (peptide)
peptide: KSFYR
The molecule B7 had a Binding affinity (RU) of 53 RU.

B8: 5mer-31 (peptide)
peptide: RRLQR
B8 had a Binding affinity (RU) of 65 RU.

B9: 5mer-338 (peptide)
peptide: RWILR
Molecule B9 came in with a Binding affinity (RU) of 61 RU.

B10: 5mer-333 (peptide)
peptide: RVLQR
The molecule B10 came in with a Binding affinity (RU) of 67 RU.

B11: 5mer-34 (peptide)
peptide: KRIRK
On to B11, for which the Binding affinity (RU) stood at 82 RU.

B12: 5mer-341 (peptide)
peptide: RWYRR
With B12, the Binding affinity (RU) was 52 RU.

B13: 5mer-337 (peptide)
peptide: KGRSR
Turning to B13, the Binding affinity (RU) was 67 RU.

B14: 5mer-212 (peptide)
peptide: KQQYK
For B14, the Binding affinity (RU) came to 64 RU.

B15: 5mer-344 (peptide)
peptide: KQFQR
The molecule B15 showed a Binding affinity (RU) of 52 RU.

B16: 5mer-335 (peptide)
peptide: KSLTR
B16 displayed a Binding affinity (RU) of 56 RU.

B17: 5mer-327 (peptide)
peptide: RVLCR
B17 had a Binding affinity (RU) of 86 RU.

B18: 5mer-30 (peptide)
peptide: KSQLR
With B18, the Binding affinity (RU) was found to be 70 RU.

B19: 5mer-203 (peptide)
peptide: RQLTR
For B19, the Binding affinity (RU) came to 78 RU.

B20: 5mer-45 (peptide)
peptide: RVFQR
As for B20, the Binding affinity (RU) is 86 RU.

B21: 5mer-328 (peptide)
peptide: RWVLK
The molecule B21 registered a Binding affinity (RU) of 61 RU.

B22: 5mer-507 (peptide)
peptide: KWVQK
Consider B22, for which the Binding affinity (RU) is 84 RU.

B23: 5mer-342 (peptide)
peptide: KVYQR
As to B23, the Binding affinity (RU) came out at 69 RU.

B24: 5mer-501 (peptide)
peptide: KLQRK
In turn, B24 gave a Binding affinity (RU) of 78 RU.

B25: 5mer-505 (peptide)
peptide: RQIYR
The molecule B25 returned a Binding affinity (RU) of 71 RU.

B26: 5mer-346 (peptide)
peptide: KGISK
The molecule B26 registered a Binding affinity (RU) of 57 RU.

B27: 5mer-36 (peptide)
peptide: RRLQK
Turning to B27, the Binding affinity (RU) is 60 RU.

B28: 5mer-336 (peptide)
peptide: KSVSR
Take B28: the Binding affinity (RU) worked out at 83 RU.

B29: 5mer-41 (peptide)
peptide: KVISK
In the case of B29, the Binding affinity (RU) was 82 RU.

B30: 5mer-509 (peptide)
peptide: RVQRK
B30 showed a Binding affinity (RU) of 61 RU.

B31: 5mer-46 (peptide)
peptide: KRQCK
Turning to B31, the Binding affinity (RU) came to 76 RU.

B32: 5mer-204 (peptide)
peptide: RQFQR
The molecule B32 returned a Binding affinity (RU) of 84 RU.

B33: 5mer-207 (peptide)
peptide: KQVRR
B33 returned a Binding affinity (RU) of 72 RU.

B34: 5mer-200 (peptide)
peptide: KRVRR
In the case of B34, the Binding affinity (RU) came to 55 RU.

B35: 5mer-48 (peptide)
peptide: RVYLR
The molecule B35 had a Binding affinity (RU) of 62 RU.

B36: 5mer-345 (peptide)
peptide: RQQRR
The molecule B36 came in with a Binding affinity (RU) of 86 RU.

B37: 5mer-500 (peptide)
peptide: KSLQK
In turn, B37 registered a Binding affinity (RU) of 63 RU.

B38: 5mer-209 (peptide)
peptide: RGVRR
B38 had a Binding affinity (RU) of 78 RU.

B39: 5mer-47 (peptide)
peptide: KGVRR
For B39, the Binding affinity (RU) was 70 RU.

B40: 5mer-502 (peptide)
peptide: RRISR
Consider B40, for which the Binding affinity (RU) is 84 RU.

B41: 5mer-332 (peptide)
peptide: RRYCR
In turn, B41 came in with a Binding affinity (RU) of 85 RU.

B42: 5mer-33 (peptide)
peptide: RRISK
B42: the Binding affinity (RU) was found to be 59 RU.

B43: 5mer-202 (peptide)
peptide: KWYRR
Turning to B43, the Binding affinity (RU) is 65 RU.

B44: 5mer-210 (peptide)
peptide: KVYYR
As to B44, the Binding affinity (RU) was determined as 67 RU.

B45: 5mer-348 (peptide)
peptide: KRQTK
B45 yielded a Binding affinity (RU) of 80 RU.

B46: 5mer-508 (peptide)
peptide: KGLQK
Turning to B46, the Binding affinity (RU) turned out to be 67 RU.

B47: 5mer-205 (peptide)
peptide: RWYYR
In the case of B47, the Binding affinity (RU) is 75 RU.

B48: 5mer-29 (peptide)
peptide: KGFCR
Take B48: the Binding affinity (RU) was found to be 63 RU.

B49: 5mer-199 (peptide)
peptide: KRYQR
Take B49: the Binding affinity (RU) was found to be 84 RU.

B50: 5mer-38 (peptide)
peptide: RGYCK
Molecule B50 had a Binding affinity (RU) of 53 RU.

B51: 5mer-331 (peptide)
peptide: RGIQR
Take B51: the Binding affinity (RU) amounted to 79 RU.

B52: 5mer-39 (peptide)
peptide: KQVSR
On to B52, for which the Binding affinity (RU) came to 67 RU.

B53: 5mer-499 (peptide)
peptide: RVLTK
With B53, the Binding affinity (RU) was 76 RU.

B54: 5mer-512 (peptide)
peptide: RLYLK
Molecule B54 came in with a Binding affinity (RU) of 70 RU.

B55: 5mer-28 (peptide)
peptide: RLLSR
B55 showed a Binding affinity (RU) of 74 RU.

B56: 5mer-347 (peptide)
peptide: KRICR
With B56, the Binding affinity (RU) came to 78 RU.

B57: 5mer-504 (peptide)
peptide: KQIQR
Regarding B57, the Binding affinity (RU) is 72 RU.

B58: 5mer-201 (peptide)
peptide: RWIYR
As for B58, the Binding affinity (RU) was 62 RU.

B59: 5mer-510 (peptide)
peptide: RQLSK
On to B59, for which the Binding affinity (RU) was 71 RU.

B60: 5mer-340 (peptide)
peptide: KGYRR
Molecule B60 gave a Binding affinity (RU) of 51 RU.

B61: 5mer-208 (peptide)
peptide: KLICR
With B61, the Binding affinity (RU) turned out to be 80 RU.

B62: 5mer-506 (peptide)
peptide: RGRLR
Turning to B62, the Binding affinity (RU) turned out to be 51 RU.

B63: 5mer-334 (peptide)
peptide: KRFYK
Molecule B63 came in with a Binding affinity (RU) of 64 RU.

B64: 5mer-213 (peptide)
peptide: RQYTK
On to B64, for which the Binding affinity (RU) came to 83 RU.

B65: 5mer-37 (peptide)
peptide: RRLSR
Molecule B65 returned a Binding affinity (RU) of 72 RU.

B66: 5mer-40 (peptide)
peptide: KSVCR
B66 gave a Binding affinity (RU) of 67 RU.

B67: 5mer-211 (peptide)
peptide: RLYYR
With B67, the Binding affinity (RU) came to 73 RU.

B68: 5mer-330 (peptide)
peptide: RWQLR
As to B68, the Binding affinity (RU) was determined as 86 RU.

B69: 5mer-206 (peptide)
peptide: KLQLR
Turning to B69, the Binding affinity (RU) was 57 RU.

B70: 5mer-32 (peptide)
peptide: RQLSR
As to B70, the Binding affinity (RU) turned out to be 75 RU.

B71: 5mer-339 (peptide)
peptide: KWVRK
Consider B71, for which the Binding affinity (RU) turned out to be 87 RU.

B72: 5mer-511 (peptide)
peptide: KSLSR
In turn, B72 registered a Binding affinity (RU) of 56 RU.
